Data on three substances can be found in patent publication US20250084169A1.

Assay [1] concerns the target cynomolgus monkey Fc gamma receptor CD64 (cynomolgus monkey).
The target is the same in assay [2]. This is another data set of the same source.
In assay [3] the target is cynomolgus monkey Fc gamma receptor CD32a (cynomolgus monkey).
The target is the same in assay [4]. The source holds these as a separate data set.
Assay [5] deals with cynomolgus monkey Fc gamma receptor CD32b (cynomolgus monkey).

Where two headings read alike, the source gives them in different places.

Tafasitamab-cxix (research grade biosimilar) (antibody), sequence (heavy): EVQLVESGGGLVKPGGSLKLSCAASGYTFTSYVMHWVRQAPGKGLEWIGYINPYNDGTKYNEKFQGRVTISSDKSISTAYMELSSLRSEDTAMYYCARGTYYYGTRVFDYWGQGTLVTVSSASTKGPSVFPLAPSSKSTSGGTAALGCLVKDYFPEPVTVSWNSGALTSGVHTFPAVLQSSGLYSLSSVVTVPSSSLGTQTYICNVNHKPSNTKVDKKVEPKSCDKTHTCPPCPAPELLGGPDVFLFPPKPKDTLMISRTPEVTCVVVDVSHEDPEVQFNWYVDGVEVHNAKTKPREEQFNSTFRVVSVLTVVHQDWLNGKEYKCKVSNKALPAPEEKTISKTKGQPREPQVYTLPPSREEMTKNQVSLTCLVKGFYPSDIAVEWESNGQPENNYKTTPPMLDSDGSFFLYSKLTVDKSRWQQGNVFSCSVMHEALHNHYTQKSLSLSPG
Tafasitamab-cxix (research grade biosimilar) (antibody), sequence (light): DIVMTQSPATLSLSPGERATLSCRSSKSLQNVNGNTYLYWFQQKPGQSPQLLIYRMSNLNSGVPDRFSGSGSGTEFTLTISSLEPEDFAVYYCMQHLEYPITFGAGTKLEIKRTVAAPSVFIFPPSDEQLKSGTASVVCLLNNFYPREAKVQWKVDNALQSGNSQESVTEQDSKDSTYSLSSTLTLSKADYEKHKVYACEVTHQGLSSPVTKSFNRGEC

In the case of “FMC59-S239D/I332E (huFMC63-S239D/I332E) (antibody)”, the Kd in assay [1] was 1 nM; in assay [2], less than 0.02 nM.

In the case of Rituximab (antibody), the equilibrium dissociation constant (Kd) in assay [3] is 5940 nM; in assay [4] it was 3130 nM; in assay [5] it was 1460 nM; in assay [2], less than 0.02 nM.

On to “Tafasitamab-cxix (research grade biosimilar) (antibody)”, for which the Kd in assay [1] is 1.8 nM; in assay [2], less than 0.02 nM.
